Experimental findings from US20220119531A1 are described below.

The term EC50 denotes the midpoint of the concentration-response curve. Read a low EC50 as higher potency in that assay.

This experiment concerns the target human PD-L1 expressed on mammalian cells (human) (UniProt Q9NZQ7). Kind of experiment: FACS on PDL1-Raji cells by the text; sheet title 'Cell-Based Binding Raji-PDL1 cells', y axis labelled IL2 (ng/ml); EC50 table under the plot, unit taken from the axis Concentration (nM).

Sequence of human PD-L1 expressed on mammalian cells (human) (Q9NZQ7 19-290): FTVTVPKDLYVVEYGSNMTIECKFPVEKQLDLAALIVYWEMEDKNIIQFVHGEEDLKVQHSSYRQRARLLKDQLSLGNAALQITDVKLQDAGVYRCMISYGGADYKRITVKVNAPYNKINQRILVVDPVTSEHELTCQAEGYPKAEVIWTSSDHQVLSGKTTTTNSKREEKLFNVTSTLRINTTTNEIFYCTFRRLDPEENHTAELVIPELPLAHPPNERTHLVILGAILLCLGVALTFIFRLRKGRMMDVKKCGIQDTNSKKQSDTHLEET

In turn, Tecentriq (atezolizumab) (antibody) displayed an EC50 of 0.89 nM.
